# Results: patent US11447574B2
# Target: human IL-17A (human) (UniProt Q16552)
substance,measurement,value
AIN457 (anti-IL-17A antibody by Novartis),"IC50, picomole, as defined by the cell IL6 test",1100 picomole
